2 molecules from US20040058457 (published 2004) can be followed below.

Data set [1] concerns the target T1, GST-Zif268 (PED107) (mouse, UniProt P08046 SEQ:1-90). The experiment in a line: EMSA; protein bound to Au-GSH nanoparticles; DNA co-migrated with Au particles; 1% agarose, 1xTAE, RT 10 min. Background: In EMSA bound probe runs differently from free probe, usually more slowly.
Data set [2] concerns the target T1, GST-Zif268 (PED107). Description: EMSA; 1% agarose gel, RT 10 min, 0-4 uL of 1 mg/mL protein; shorter DNA trapped in well with increasing protein.

B1: NZ-23 (as added to Au-GSH/GST-Zif268 assay) (dsDNA)
DNA 1: AAGGGTTCAGCGTGGGCG
DNA 2: CGCCCACGCTGAACCCTT
B1: in the data set with GST-Zif268 (PED107) [1], the binding result is “binds”.

B2: NZ-23 420 bp fragment with 23 tandem Zif268 sites separated by NRE sites (dsDNA)
DNA 1: AAGGGTTCAGCGTGGGCG
DNA 2: CGCCCACGCTGAACCCTT
In the case of B2, the binding result in the data set with GST-Zif268 (PED107) [2] is “binds”.
